Source: article PMC2756588

T1: Abp1, P15891
T1 sequence (P15891 535-592, looked up): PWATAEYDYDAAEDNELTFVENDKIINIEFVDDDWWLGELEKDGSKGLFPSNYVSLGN

T2: Bbc1, P47068
T2 sequence (P47068 1-78, looked up): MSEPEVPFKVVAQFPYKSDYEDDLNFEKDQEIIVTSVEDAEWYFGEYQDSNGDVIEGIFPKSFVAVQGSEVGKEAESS

T3: Boi1, P38041
T3 sequence (P38041 1-86, looked up): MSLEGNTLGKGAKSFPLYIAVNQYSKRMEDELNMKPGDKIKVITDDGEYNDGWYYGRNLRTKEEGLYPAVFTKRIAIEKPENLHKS

T4: Boi2, P39969
T4 sequence (P39969 32-116, looked up): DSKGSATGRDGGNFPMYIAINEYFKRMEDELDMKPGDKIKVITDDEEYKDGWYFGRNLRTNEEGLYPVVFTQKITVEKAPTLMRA

T5: Bud14, P27637
T5 sequence (P27637 247-328, looked up): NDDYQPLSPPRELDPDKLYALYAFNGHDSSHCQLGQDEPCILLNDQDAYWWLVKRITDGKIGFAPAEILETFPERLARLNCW

T6: Bzz1-1, P38822
T6 sequence (P38822 478-572, looked up): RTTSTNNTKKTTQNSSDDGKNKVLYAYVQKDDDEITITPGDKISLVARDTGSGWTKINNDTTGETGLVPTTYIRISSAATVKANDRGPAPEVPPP

T7: Bzz1-2, P38822
T7 sequence (P38822 568-633, looked up): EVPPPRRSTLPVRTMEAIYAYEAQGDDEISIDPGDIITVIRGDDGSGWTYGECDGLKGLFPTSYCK

T8: Cdc25, P04821
T8 sequence (P04821 50-136, looked up): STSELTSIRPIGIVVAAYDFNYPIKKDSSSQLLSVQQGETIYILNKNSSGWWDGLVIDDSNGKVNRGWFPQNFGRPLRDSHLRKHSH

T9: Cyk3, Q07533
T9 sequence (Q07533 1-83, looked up): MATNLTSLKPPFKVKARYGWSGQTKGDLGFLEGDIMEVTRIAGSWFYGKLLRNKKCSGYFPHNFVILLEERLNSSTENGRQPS

T10: Fus1, P11710
T10 sequence (P11710 432-512, looked up): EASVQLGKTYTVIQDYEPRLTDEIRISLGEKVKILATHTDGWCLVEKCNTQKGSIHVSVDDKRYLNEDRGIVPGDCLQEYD

T11: Hof1, Q05080
T11 sequence (Q05080 590-669, looked up): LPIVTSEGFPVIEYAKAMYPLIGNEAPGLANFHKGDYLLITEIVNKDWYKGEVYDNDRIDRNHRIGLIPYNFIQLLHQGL

T12: Hse1, P38753
T12 sequence (P38753 208-285, looked up): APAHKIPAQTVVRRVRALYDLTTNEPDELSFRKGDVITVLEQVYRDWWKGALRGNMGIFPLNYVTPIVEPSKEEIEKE

T13: Lsb1, P53281
T13 sequence (P53281 45-122, looked up): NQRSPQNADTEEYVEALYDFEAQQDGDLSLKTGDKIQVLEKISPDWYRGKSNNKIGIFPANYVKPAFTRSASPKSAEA

T14: Lsb3, P43603
T14 sequence (P43603 385-451, looked up): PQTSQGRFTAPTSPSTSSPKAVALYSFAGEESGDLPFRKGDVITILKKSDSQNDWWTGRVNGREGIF

T15: Lsb4, P32793
T15 sequence (P32793 402-468, looked up): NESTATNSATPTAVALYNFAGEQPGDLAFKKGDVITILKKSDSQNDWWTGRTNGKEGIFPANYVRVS

T16: Myo5, Q04439
T16 sequence (Q04439 1072-1160, looked up): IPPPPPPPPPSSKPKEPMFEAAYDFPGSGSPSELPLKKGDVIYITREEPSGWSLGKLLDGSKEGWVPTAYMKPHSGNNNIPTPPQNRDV

T17: Nbp2, Q12163
T17 sequence (Q12163 103-180, looked up): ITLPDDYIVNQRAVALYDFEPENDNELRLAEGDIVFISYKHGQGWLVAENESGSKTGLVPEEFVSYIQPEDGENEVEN

T18: Pex13, P80667
T18 sequence (P80667 295-386, looked up): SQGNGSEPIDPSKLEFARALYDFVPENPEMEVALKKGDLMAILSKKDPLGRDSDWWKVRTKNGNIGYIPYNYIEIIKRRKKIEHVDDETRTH

T19: Pin3, Q06449
T19 sequence (Q06449 53-122, looked up): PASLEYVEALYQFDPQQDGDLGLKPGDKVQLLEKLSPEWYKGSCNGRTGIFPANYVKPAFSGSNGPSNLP

T20: Sla1-2, P32790
T20 sequence (P32790 60-140, looked up): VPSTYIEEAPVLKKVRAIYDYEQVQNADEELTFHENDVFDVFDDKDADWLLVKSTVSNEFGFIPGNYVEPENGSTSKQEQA

T21: Sla1-3, P32790
T21 sequence (P32790 344-424, looked up): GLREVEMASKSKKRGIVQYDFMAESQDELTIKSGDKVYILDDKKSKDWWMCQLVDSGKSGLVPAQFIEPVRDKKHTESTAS


Legend:
Test in all cases: SPOT array
[1] = biological target: T1, Abp1, P15891; details: median of control spots 935
[2] = biological target: T2, Bbc1, P47068; details: median of control spots 796
[3] = biological target: Bem1-1, P29366; details: median of control spots 4282
Sequence of Bem1-1, P29366 (P29366 55-141): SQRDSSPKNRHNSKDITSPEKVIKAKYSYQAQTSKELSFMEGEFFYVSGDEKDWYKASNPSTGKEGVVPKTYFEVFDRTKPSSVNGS

[4] = biological target: Bem1-2, P29366; details: median of control spots 4347
Sequence of Bem1-2, P29366 (P29366 139-227): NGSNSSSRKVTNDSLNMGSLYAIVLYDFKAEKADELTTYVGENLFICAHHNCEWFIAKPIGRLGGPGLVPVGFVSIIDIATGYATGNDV

[5] = biological target: T3, Boi1, P38041; details: median of control spots 1162
[6] = biological target: T4, Boi2, P39969; details: median of control spots 1161
[7] = biological target: T5, Bud14, P27637; details: median of control spots 956
[8] = biological target: T6, Bzz1-1, P38822; details: median of control spots 4446
[9] = biological target: T7, Bzz1-2, P38822; details: median of control spots 4538
[10] = biological target: T8, Cdc25, P04821; details: median of control spots 969
[11] = biological target: T9, Cyk3, Q07533; details: median of control spots 1451
[12] = biological target: T10, Fus1, P11710; details: median of control spots 1200
[13] = biological target: GST; details: median of control spots 978
[14] = biological target: T11, Hof1, Q05080; details: median of control spots 4086
[15] = biological target: T12, Hse1, P38753; details: median of control spots 1727
[16] = biological target: T13, Lsb1, P53281; details: median of control spots 388
[17] = biological target: T14, Lsb3, P43603; details: median of control spots 406
[18] = biological target: T15, Lsb4, P32793; details: median of control spots 397
[19] = biological target: Myo3, P36006; details: median of control spots 468
[20] = biological target: T16, Myo5, Q04439; details: median of control spots 471
[21] = biological target: T17, Nbp2, Q12163; details: median of control spots 357
[22] = biological target: T18, Pex13, P80667; details: median of control spots 1341
[23] = biological target: T19, Pin3, Q06449; details: median of control spots 2171
[24] = biological target: Rvs167, P39743; details: median of control spots 2707
Sequence of Rvs167, P39743 (P39743 419-482): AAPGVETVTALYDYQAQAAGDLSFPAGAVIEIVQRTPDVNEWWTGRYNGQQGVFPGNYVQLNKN

[25] = biological target: Sho1, P40073; details: median of control spots 1148
Sequence of Sho1, P40073 (P40073 287-367): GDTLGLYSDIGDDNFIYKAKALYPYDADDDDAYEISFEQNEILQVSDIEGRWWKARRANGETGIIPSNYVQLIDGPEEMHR

[26] = biological target: T20, Sla1-2, P32790; details: median of control spots 712
[27] = biological target: T21, Sla1-3, P32790; details: median of control spots 5475

| Binder | SPOT intensity [1] | SPOT intensity [2] | SPOT intensity [3] | SPOT intensity [4] | SPOT intensity [5] | SPOT intensity [6] | SPOT intensity [7] | SPOT intensity [8] | SPOT intensity [9] | SPOT intensity [10] | SPOT intensity [11] | SPOT intensity [12] | SPOT intensity [13] | SPOT intensity [14] | SPOT intensity [15] | SPOT intensity [16] | SPOT intensity [17] | SPOT intensity [18] | SPOT intensity [19] | SPOT intensity [20] | also measured |
| --- | --- | --- | --- | --- | --- | --- | --- | --- | --- | --- | --- | --- | --- | --- | --- | --- | --- | --- | --- | --- | --- |
| YSRKKLPVVLSKMTL | 64 | 18 | 1 | 0 | 0 | 1 | 3 | 1 | 0 | 0 | 1 | 2 | 2 | 2 | 1 | 888 | 1 | 0 | 1 | 4 | SPOT intensity [21]: 0; SPOT intensity [22]: 8; SPOT intensity [23]: 20; SPOT intensity [24]: 2; SPOT intensity [25]: 47; SPOT intensity [26]: 4; SPOT intensity [27]: 12 |
| VKPRQLFPIPLNKVD | 10 | 0 | 0 | 0 | 0 | 0 | 0 | 1 | 0 | 0 | 0 | 0 | 0 | 0 | 0 | 880 | 0 | 0 | 0 | 0 | SPOT intensity [21]: 0; SPOT intensity [22]: 0; SPOT intensity [23]: 5; SPOT intensity [24]: 0; SPOT intensity [25]: 8; SPOT intensity [26]: 0; SPOT intensity [27]: 0 |
| KWVRRPKLMTPLTFS | 67 | 38 | 0 | 5 | 1 | 0 | 11 | 1 | 0 | 0 | 1 | 54 | 1 | 8 | 16 | 355 | 5 | 2 | 6 | 6 | SPOT intensity [21]: 3; SPOT intensity [22]: 6; SPOT intensity [23]: 53; SPOT intensity [24]: 0; SPOT intensity [25]: 19; SPOT intensity [26]: 0; SPOT intensity [27]: 44 |
| HPRFVSPRIPSRIVK | 133 | 226 | 0 | 2 | 0 | 0 | 0 | 0 | 0 | 2 | 0 | 0 | 0 | 0 | 9 | 379 | 41 | 57 | 3 | 0 | SPOT intensity [21]: 2; SPOT intensity [22]: 21; SPOT intensity [23]: 86; SPOT intensity [24]: 4; SPOT intensity [25]: 40; SPOT intensity [26]: 0; SPOT intensity [27]: 15 |
